{"source": "patent US20120283194", "about": "“Inhibitors of Atypical Protein Kinase C and Their Use in Treating Hedgehog Pathway-Dependent Cancers” (published 2012)", "binders": {"B1": {"name": "Gli1 target oligo (dsDNA)", "DNA 1": "AGCCCGGACCACCCACGAGAA", "DNA 2": "TTCTCGTGGGTGGTCCGGGCT"}}, "key": {"Gli1": {"biological_target": "Gli1 (Homo sapiens, UniProt P08151 P08151:1-1106)", "sequence (P08151 whole entry, one chain of several)": "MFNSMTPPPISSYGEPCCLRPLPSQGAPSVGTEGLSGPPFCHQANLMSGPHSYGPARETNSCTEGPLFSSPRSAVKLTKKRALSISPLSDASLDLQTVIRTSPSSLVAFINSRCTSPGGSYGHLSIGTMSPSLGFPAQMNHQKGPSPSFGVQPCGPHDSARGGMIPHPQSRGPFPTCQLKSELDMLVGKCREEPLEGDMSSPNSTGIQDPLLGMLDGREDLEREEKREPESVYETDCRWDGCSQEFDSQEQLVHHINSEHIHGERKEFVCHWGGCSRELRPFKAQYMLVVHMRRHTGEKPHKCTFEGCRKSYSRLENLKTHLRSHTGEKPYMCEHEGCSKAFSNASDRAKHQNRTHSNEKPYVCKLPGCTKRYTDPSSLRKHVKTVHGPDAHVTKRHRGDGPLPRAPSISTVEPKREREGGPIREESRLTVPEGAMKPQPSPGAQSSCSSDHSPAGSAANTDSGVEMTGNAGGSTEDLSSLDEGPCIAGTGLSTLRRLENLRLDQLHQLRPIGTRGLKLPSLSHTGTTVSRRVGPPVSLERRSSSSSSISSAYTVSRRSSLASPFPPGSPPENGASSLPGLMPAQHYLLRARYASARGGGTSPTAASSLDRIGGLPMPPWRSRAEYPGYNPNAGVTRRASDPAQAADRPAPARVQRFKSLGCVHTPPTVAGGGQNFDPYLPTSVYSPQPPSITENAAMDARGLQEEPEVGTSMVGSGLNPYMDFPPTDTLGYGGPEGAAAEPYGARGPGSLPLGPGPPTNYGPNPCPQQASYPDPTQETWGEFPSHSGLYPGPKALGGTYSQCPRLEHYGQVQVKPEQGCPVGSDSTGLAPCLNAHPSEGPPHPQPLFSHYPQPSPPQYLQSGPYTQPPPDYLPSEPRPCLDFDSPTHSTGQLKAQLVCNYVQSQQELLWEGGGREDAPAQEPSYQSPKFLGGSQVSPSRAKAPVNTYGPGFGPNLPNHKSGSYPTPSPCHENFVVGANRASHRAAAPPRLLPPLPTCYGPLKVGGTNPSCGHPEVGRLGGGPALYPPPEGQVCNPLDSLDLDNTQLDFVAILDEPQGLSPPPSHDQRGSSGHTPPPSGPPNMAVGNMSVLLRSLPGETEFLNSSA", "assay": "EMSA; Zn, Mg, poly(dI-dC)-type competitor, room temperature; binding reduced by PSI during translation and rescued by recombinant aPKC; over-phosphorylation disrupts", "settings": "tags: V5/HIS, rabbit reticulocyte lysate (Promega)", "method": "(§1) Electrophoretic mobility shift assay performed by incubation of 50 fmol double-stranded radiolabeled Gli1 oligos (5′ […] 3′ (SEQ IF NO:5)) in binding buffer ([…] pH 7.5, mM KCl, 2.5 mM MgCl2, 1 mM DTT, 10% glycerol, 25 uM poly(dO-dC), 5 uM ZnSO₄) with IVT Gli1:V5/HIS lysate for 10 min at room temperature. 2 pmol unlabeled Gli1 oligos or Gli1 mutant oligos (5′ […] 3′ (SEQ ID NO:6)) used as competition. Endogenous aPKC inhibited in reticulocyte lysate with PSI during translation reaction and rescue performed by adding recombinant HIS:aPKC for 15 min before addition of radiolabeled Gli1 oligos. Samples were resolved on 6% acrylamide gel and exposed to a phosphor screen (Molecular Dynamics) and imaged with GE Typhoon 9410.\n(§2) We asked whether phosphorylated Gli1 affects the mobility of radiolabeled Gli1 target DNA in an electrophoretic mobility assay."}, "aPKC (HIS:aPKC)": {"biological_target": "T1, aPKC (HIS:aPKC) (UniProt P41743 P41743:1-596)", "T1 sequence": "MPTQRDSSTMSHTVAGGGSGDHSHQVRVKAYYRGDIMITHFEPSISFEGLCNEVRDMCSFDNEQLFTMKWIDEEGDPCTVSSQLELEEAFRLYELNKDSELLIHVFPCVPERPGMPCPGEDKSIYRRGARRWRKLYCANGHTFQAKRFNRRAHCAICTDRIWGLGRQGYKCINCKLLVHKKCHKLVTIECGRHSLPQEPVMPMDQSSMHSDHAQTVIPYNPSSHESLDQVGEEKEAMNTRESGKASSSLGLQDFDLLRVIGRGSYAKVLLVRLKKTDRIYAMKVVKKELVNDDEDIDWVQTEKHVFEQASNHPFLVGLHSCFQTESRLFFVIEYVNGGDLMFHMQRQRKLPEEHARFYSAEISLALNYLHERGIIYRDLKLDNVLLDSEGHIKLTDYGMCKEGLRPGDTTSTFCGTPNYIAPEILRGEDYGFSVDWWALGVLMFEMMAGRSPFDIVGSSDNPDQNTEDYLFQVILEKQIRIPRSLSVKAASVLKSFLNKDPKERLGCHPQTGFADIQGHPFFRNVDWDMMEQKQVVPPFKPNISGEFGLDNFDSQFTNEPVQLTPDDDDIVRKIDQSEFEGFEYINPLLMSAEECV", "assay": "EMSA; aPKC alone did not bind", "settings": "tags: HIS, Abcam", "method": "as §1, §2"}}, "data": [{"binder": "B1", "values": [{"measurement": "binding result", "setting": "Gli1", "value": "binds"}, {"measurement": "binding result", "setting": "aPKC (HIS:aPKC)", "value": "no binding"}]}]}
